In patent US5885797, “Polynucleotide sequences encoding proteins involved in myogenesis” (Fred Hutchinson Cancer Research Center, dated 1999):

Assays:
VP16-I-mfc = molecular target: T1, VP16-I-mfc (mouse); assay: yeast hybrid assay, strain L40, β-galactosidase reporter
T1 chain: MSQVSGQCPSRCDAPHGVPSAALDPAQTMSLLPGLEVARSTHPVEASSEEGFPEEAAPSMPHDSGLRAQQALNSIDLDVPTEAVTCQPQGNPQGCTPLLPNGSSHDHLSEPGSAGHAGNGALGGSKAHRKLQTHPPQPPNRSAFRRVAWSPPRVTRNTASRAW

[1] = molecular target: T2, Lethal of Scute (AS-C T3) (Drosophila melanogaster (Fruit fly), UniProt P09774); assay: yeast one-hybrid, strain L40, β-galactosidase reporter
T2 sequence: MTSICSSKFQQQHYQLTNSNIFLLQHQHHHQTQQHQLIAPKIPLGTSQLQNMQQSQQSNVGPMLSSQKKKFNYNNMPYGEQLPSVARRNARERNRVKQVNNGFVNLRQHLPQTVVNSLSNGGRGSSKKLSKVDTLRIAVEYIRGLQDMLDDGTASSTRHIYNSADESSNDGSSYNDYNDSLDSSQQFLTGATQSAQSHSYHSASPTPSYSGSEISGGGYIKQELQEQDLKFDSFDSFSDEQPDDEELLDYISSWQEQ

[2] = molecular target: T2, Lethal of Scute (AS-C T3); assay: as above; remark: listed apart in the source
[3] = molecular target: T3, Myogenin (full length, mouse) (mouse, UniProt P12979); assay: as above
[4] = molecular target: T4, Myf5 (full length, mouse) (mouse, UniProt P24699); assay: yeast hybrid assay, strain L40, β-galactosidase reporter
VP16-I-mfb = molecular target: T5, VP16-I-mfb (mouse); assay: as above
T5 chain: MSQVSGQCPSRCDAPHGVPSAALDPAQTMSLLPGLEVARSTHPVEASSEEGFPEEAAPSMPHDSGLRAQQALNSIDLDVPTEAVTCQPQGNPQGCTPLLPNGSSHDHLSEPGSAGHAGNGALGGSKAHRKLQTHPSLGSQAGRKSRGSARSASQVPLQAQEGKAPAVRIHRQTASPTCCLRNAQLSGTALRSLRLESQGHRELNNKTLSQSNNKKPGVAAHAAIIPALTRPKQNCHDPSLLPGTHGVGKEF

[5] = molecular target: T4, Myf5 (full length, mouse); assay: column 'Interaction with Myf5' of Table 4 (yeast hybrid assay of Table 3)
[6] = molecular target: T4, Myf5 (full length, mouse); assay: yeast one-hybrid, strain L40, β-galactosidase reporter
[7] = molecular target: T4, Myf5 (full length, mouse); assay: cell-based or functional assay
[8] = molecular target: MyoD (full length, mouse) (mouse, UniProt P10085); assay: cell-based or functional assay
[9] = molecular target: T3, Myogenin (full length, mouse); assay: cell-based or functional assay

B1: LexA-I-mfb (other)
chain: MKALTARQQEVFDLIRDHISQTGMPPTRAEIAQRLGFRSPNAAEEHLKALARKGVIEIVSGASRGIRLLQEEEEGLPLVGRVAAGEPLLAQQHIEGHYQVDPSLFKPNADFLLRVSGMSMKDIGIMDGDLLAVHKTQDVRNGQVVVARIDDEVTVKRLKKQGNKVELLPENSEFKPIVVDLRQQSFTIEGLAVGVIRNGDWLMSQVSGQCPSRCDAPHGVPSAALDPAQTMSLLPGLEVARSTHPVEASSEEGFPEEAAPSMPHDSGLRAQQALNSIDLDVPTEAVTCQPQGNPQGCTPLLPNGSSHDHLSEPGSAGHAGNGALGGSKAHRKLQTHPSLGSQAGRKSRGSARSASQVPLQAQEGKAPAVRIHRQTASPTCCLRNAQLSGTALRSLRLESQGHRELNNKTLSQSNNKKPGVAAHAAIIPALTRPKQNCHDPSLLPGTHGVGKEF
- β-galactosidase activity (VP16-I-mfc): < 0.1 arbitrary units
- binding result [1]: no binding
- β-galactosidase activity [2]: 0.9 arbitrary units
- β-galactosidase activity [3]: 0.4 arbitrary units

B2: LexA-I-mfc (other)
chain: MKALTARQQEVFDLIRDHISQTGMPPTRAEIAQRLGFRSPNAAEEHLKALARKGVIEIVSGASRGIRLLQEEEEGLPLVGRVAAGEPLLAQQHIEGHYQVDPSLFKPNADFLLRVSGMSMKDIGIMDGDLLAVHKTQDVRNGQVVVARIDDEVTVKRLKKQGNKVELLPENSEFKPIVVDLRQQSFTIEGLAVGVIRNGDWLMSQVSGQCPSRCDAPHGVPSAALDPAQTMSLLPGLEVARSTHPVEASSEEGFPEEAAPSMPHDSGLRAQQALNSIDLDVPTEAVTCQPQGNPQGCTPLLPNGSSHDHLSEPGSAGHAGNGALGGSKAHRKLQTHPPQPPNRSAFRRVAWSPPRVTRNTASRAW
- β-galactosidase activity [4]: < 0.1 arbitrary units
- β-galactosidase activity (VP16-I-mfb): < 0.1 arbitrary units
- binding result [5]: no binding
- β-galactosidase activity [6]: 0.4 arbitrary units
- β-galactosidase activity [3]: 0.3 arbitrary units

B3: LexA (other)
chain: MKALTARQQEVFDLIRDHISQTGMPPTRAEIAQRLGFRSPNAAEEHLKALARKGVIEIVSGASRGIRLLQEEEEGLPLVGRVAAGEPLLAQQHIEGHYQVDPSLFKPNADFLLRVSGMSMKDIGIMDGDLLAVHKTQDVRNGQVVVARIDDEVTVKRLKKQGNKVELLPENSEFKPIVVDLRQQSFTIEGLAVGVIRNGDWL
- β-galactosidase activity [3]: 0.6 arbitrary units

B4: I-mfa (other)
chain: MSQVSGQCPSRCDAPHGVPSAALDPAQTMSLLPGLEVARSTHPVEASSEEGFPEEAAPSMPHDSGLRAQQALNSIDLDVPTEAVTCQPQGNPQGCTPLLPNGSSHDHLSEPGSAGHAGNGALGGSKAHRKLQTHPSLGSQAGRKSRGSARSASQVPLQAQEDCCVHCILSCLFCEFLTLCNILLDCATCGSCSSEDSCLCCCCCGSGECADCDLPCDLDCGIVDACCESADCLEICMECCGLCFSS
- Relative CAT Activity (%), 4RCAT (10T/2 cells) [7]: 13%
- Relative CAT Activity (%), MCK-CAT (NIH3T3 cells) [7]: 9%
- Relative CAT Activity (%), 4RCAT (10T/2 cells) [8]: 56%
- Relative CAT Activity (%), MCK-CAT (NIH3T3 cells) [8]: 27%
- Relative CAT Activity (%), MCK-CAT (NIH3T3 cells) [9]: 2%

B5: I-mfb (other)
chain: MSQVSGQCPSRCDAPHGVPSAALDPAQTMSLLPGLEVARSTHPVEASSEEGFPEEAAPSMPHDSGLRAQQALNSIDLDVPTEAVTCQPQGNPQGCTPLLPNGSSHDHLSEPGSAGHAGNGALGGSKAHRKLQTHPSLGSQAGRKSRGSARSASQVPLQAQEGKAPAVRIHRQTASPTCCLRNAQLSGTALRSLRLESQGHRELNNKTLSQSNNKKPGVAAHAAIIPALTRPKQNCHDPSLLPGTHGVGKEF
- Relative CAT Activity (%), 4RCAT (10T/2 cells) [7]: 105%
- Relative CAT Activity (%), MCK-CAT (NIH3T3 cells) [7]: 132%
- Relative CAT Activity (%), 4RCAT (10T/2 cells) [8]: 95%
- Relative CAT Activity (%), MCK-CAT (NIH3T3 cells) [8]: 87%
- Relative CAT Activity (%), MCK-CAT (NIH3T3 cells) [9]: 101%

B6: I-mfc (other)
chain: MSQVSGQCPSRCDAPHGVPSAALDPAQTMSLLPGLEVARSTHPVEASSEEGFPEEAAPSMPHDSGLRAQQALNSIDLDVPTEAVTCQPQGNPQGCTPLLPNGSSHDHLSEPGSAGHAGNGALGGSKAHRKLQTHPPQPPNRSAFRRVAWSPPRVTRNTASRAW
- Relative CAT Activity (%), 4RCAT (10T/2 cells) [7]: 101%
- Relative CAT Activity (%), MCK-CAT (NIH3T3 cells) [7]: 106%
- Relative CAT Activity (%), 4RCAT (10T/2 cells) [8]: 100%
- Relative CAT Activity (%), MCK-CAT (NIH3T3 cells) [8]: 100%
- Relative CAT Activity (%), MCK-CAT (NIH3T3 cells) [9]: 111%

B7: LexA-I-mfa (other)
chain: MKALTARQQEVFDLIRDHISQTGMPPTRAEIAQRLGFRSPNAAEEHLKALARKGVIEIVSGASRGIRLLQEEEEGLPLVGRVAAGEPLLAQQHIEGHYQVDPSLFKPNADFLLRVSGMSMKDIGIMDGDLLAVHKTQDVRNGQVVVARIDDEVTVKRLKKQGNKVELLPENSEFKPIVVDLRQQSFTIEGLAVGVIRNGDWLMSQVSGQCPSRCDAPHGVPSAALDPAQTMSLLPGLEVARSTHPVEASSEEGFPEEAAPSMPHDSGLRAQQALNSIDLDVPTEAVTCQPQGNPQGCTPLLPNGSSHDHLSEPGSAGHAGNGALGGSKAHRKLQTHPSLGSQAGRKSRGSARSASQVPLQAQEDCCVHCILSCLFCEFLTLCNILLDCATCGSCSSEDSCLCCCCCGSGECADCDLPCDLDCGIVDACCESADCLEICMECCGLCFSS
- β-galactosidase activity (VP16-I-mfc): 0.5 arbitrary units
- β-galactosidase activity (VP16-I-mfb): 0.7 arbitrary units

B8: LexA-I-mfa (1-202) (other)
chain: MSQVSGQCPSRCDAPHGVPSAALDPAQTMSLLPGLEVARSTHPVEASSEEGFPEEAAPSMPHDSGLRAQQALNSIDLDVPTEAVTCQPQGNPQGCTPLLPNGSSHDHLSEPGSAGHAGNGALGGSKAHRKLQTHPSLGSQAGRKSRGSARSASQVPLQAQEDCCVHCILSCLFCEFLTLCNILLDCATCGSCSSEDSCLCCC
- β-galactosidase activity (VP16-I-mfc): < 0.1 arbitrary units
- β-galactosidase activity (VP16-I-mfb): < 0.1 arbitrary units

B9: LexA-I-mfa (29-246) (other)
chain: MSLLPGLEVARSTHPVEASSEEGFPEEAAPSMPHDSGLRAQQALNSIDLDVPTEAVTCQPQGNPQGCTPLLPNGSSHDHLSEPGSAGHAGNGALGGSKAHRKLQTHPSLGSQAGRKSRGSARSASQVPLQAQEDCCVHCILSCLFCEFLTLCNILLDCATCGSCSSEDSCLCCCCCGSGECADCDLPCDLDCGIVDACCESADCLEICMECCGLCFSS
- β-galactosidase activity (VP16-I-mfc): 0.8 arbitrary units
- β-galactosidase activity (VP16-I-mfb): 0.7 arbitrary units

B10: LexA-I-mfa (87-246) (other)
chain: QPQGNPQGCTPLLPNGSSHDHLSEPGSAGHAGNGALGGSKAHRKLQTHPSLGSQAGRKSRGSARSASQVPLQAQEDCCVHCILSCLFCEFLTLCNILLDCATCGSCSSEDSCLCCCCCGSGECADCDLPCDLDCGIVDACCESADCLEICMECCGLCFSS
- β-galactosidase activity (VP16-I-mfb): 0.6 arbitrary units

B11: LexA-I-mfa (87-202) (other)
chain: QPQGNPQGCTPLLPNGSSHDHLSEPGSAGHAGNGALGGSKAHRKLQTHPSLGSQAGRKSRGSARSASQVPLQAQEDCCVHCILSCLFCEFLTLCNILLDCATCGSCSSEDSCLCCC
- β-galactosidase activity (VP16-I-mfc): < 0.1 arbitrary units
- β-galactosidase activity (VP16-I-mfb): 0.2 arbitrary units
